Data reported in the supplement of paper PMC12855868.

B1: library; numbered along this chain (parent)
chain: MAAAGGARLLRAASAVLGGPAGRWLHHAGSRAGSSGLLRNRGPGGSAEASRSLSVSARARSSSEDKITVHFINRDGETLTTKGKVGDSLLDVVVENNLDIDGFGACEGTLACSTCHLIFEDHIYEKLDAITDEENDMLDLAYGLTDRSRLGCQICLTKSMDNMTVRVPETVADARQSIDVGKTS

Variants of: B1
Assay: scaled log2 fold change in cell abundance, elesclomol vs control (0 = silent mean, 1 = nonsense mean) (scaled log2 ratio); higher = higher viability under elesclomol (loss of FDX1 cuproptosis function)
Conditions: glucose 10 mM
Description: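 Deep mutational scan of full-length human FDX1: a pooled saturation-mutagenesis ORF library (every residue 2-184 mutated to all 19 amino acids plus stop, and silent codons where available) was expressed by lentivirus in FDX1-knockout ABC1 (14 days) or HEK293T (11 days) cells grown with elesclomol (ES) or DMSO control. Variant abundance came from ORF sequencing. The log2 fold change (ES vs control, mean of duplicates) was centred on the silent-variant mean (0) and scaled to the nonsense-variant mean (1). Higher values mean greater viability under ES, i.e. loss of FDX1 function in cuproptosis.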

[1] = with ABC1 FDX1 KO, elesclomol 5 nM, 14 days
[2] = with HEK293T FDX1 KO, elesclomol 40 nM, 11 days
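Also: variant abundance is its share of total variant reads in each endpoint sample, from next-generation sequencing of the integrated ORF PCR-amplified out of genomic DNA.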

Variant	scaled log2 fold change [1]	scaled log2 fold change [2]
E64H	-0.531	-0.334
E64I	0.394	0.168
E64K	0.278	-0.162
E64L	-0.17	-0.952
E64M	-0.109	-0.0994
E64P	0.158	0.0559
E64Q	-0.0857	-0.107
E64R	-0.913	0.0821
E64S	-0.691	-0.469
E64T	0.135	-0.296
E64V	-0.321	-0.136
E64W	-0.394	
E64Y	0.374	-0.0105
D65A	-0.0535	-0.237
D65C	0.243	-0.327
D65E	-0.139	0.087
D65F	-0.512	-0.119
D65G	0.134	-0.165
D65H	0.192	0.0338
D65I	0.277	
D65K	-0.369	-0.531
D65L	0.175	-0.119
D65M	-0.334	-0.318
D65N	-0.21	0.98

Variant	scaled log2 fold change [1]	scaled log2 fold change [2]
D65P	-0.000175	0.99
D65Q	0.0546	0.293
D65R	-0.395	-0.257
D65S	-0.464	0.216
D65T	-0.192	
D65V	0.161	-0.27
D65W	0.185	0.126
D65Y	0.323	0.288
K66A	-0.0856	0.00324
K66C	-0.0989	-0.0245
K66D	-0.097	
K66E	-0.297	-0.118
K66F	-0.158	-0.676
K66G	0.301	0.245
K66H	0.0524	-0.795
K66I	-0.298	-0.755
K66L	-0.00608	-0.145
K66M	-0.188	-0.226
K66N	-0.167	0.199
K66P	-0.38	-0.254
K66Q	-0.382	0.00416
K66R	0.114	-0.744
K66S	-0.679	-0.304
K66T	0.0453	0.851

Variant	scaled log2 fold change [1]	scaled log2 fold change [2]
K66V	0.0478	-0.102
K66W	-0.5	-0.676
K66Y	-0.0452	-0.0505
I67A	0.473	0.322
I67C	0.2	-0.121
I67D	1.08	1.13
I67E	0.963	0.881
I67F	0.0413	-0.46
I67G	0.747	0.579
I67H	0.608	0.601
I67K	0.691	0.44
I67L	0.113	0.514
I67M	0.35	0.129
I67N	0.44	0.681
I67P	0.222	-0.205
I67Q	0.436	0.135
I67R	0.504	0.363
I67S	0.0219	0.253
I67T	0.0745	0.365
I67V	-0.37	0.832
I67W	0.658	-0.0492
I67Y	0.135	-0.731
T68A	-0.0418	-0.389
T68C	0.309	-0.148

Variant	scaled log2 fold change [1]	scaled log2 fold change [2]
T68D	0.0867	0.164
T68E	-0.318	-0.497
T68F	-0.000655	0.914
T68G	-0.0825	0.801
T68H	0.349	-0.699
T68I	0.0915	0.0716
T68K	-0.155	-0.329
T68L	0.248	0.885
T68M	-0.209	0.641
T68N	0.00412	-0.202
T68P	0.317	0.911
T68Q	0.0568	-0.103
T68R	-0.0852	-0.377
T68S	-0.0825	0.833
T68V	0.247	0.769
T68W	0.0579	0.896
T68Y	0.308	0.0848
V69A	0.0154	0.807
V69C	0.189	0.782
V69D	1.04	1.26
V69E	1.06	1.55
V69F	-0.809	-0.24
V69G	1.19	1.06
V69H	1.16	1.1

Variant	scaled log2 fold change [1]	scaled log2 fold change [2]
V69I	-0.0537	-0.536
V69K	1.22	1.85
V69L	-0.537	-0.407
V69M	0.273	-0.0634
V69N	1.01	0.921
V69P	1.29	0.484
V69Q	1.14	0.294
V69R	1.13	0.458
V69S	0.684	0.329
V69T	0.119	0.953
V69W	0.674	0.931
V69Y	1.05	1.86
H70A	0.42	-0.104
H70C	0.396	
H70D	0.33	1.31
H70E	0.148	0.829
H70F	0.152	0.385
H70G	0.373	1.09
H70I	0.093	-0.0895
H70K	-0.215	0.573
H70L	-0.219	-0.612
H70M	-0.0655	0.0916
H70N	0.0583	-0.00885
H70P	0.933	0.983

Variant	scaled log2 fold change [1]	scaled log2 fold change [2]
H70Q	0.0254	-0.0243
H70R	-0.349	-0.0802
H70S	0.277	-0.697
H70T	-0.764	
H70V	0.191	-1.13
H70W	-0.0809	-0.922
H70Y	0.0486	
F71A	0.63	0.751
F71C	0.161	0.0168
F71D	1.1	1.37
F71E	1.02	1.5
F71G	1.09	0.752
F71H	1.22	1.17
F71I	-0.753	-0.554
F71K	1.18	1.46
F71L	-0.0155	-0.376
F71M	0.0919	1.2
F71N	1.07	1.17
F71P	1.18	1.13
F71Q	1.3	0.999
F71R	1.04	1.38
F71S	0.983	1.08
F71T	0.523	0.991
F71V	0.271	-0.215

Variant	scaled log2 fold change [1]	scaled log2 fold change [2]
F71W	0.102	-0.726
F71Y	0.112	-0.0161
I72A	0.0764	-0.682
I72C	0.238	-0.937
I72D	0.34	-0.132
I72E	-0.111	-0.295
I72F	-0.0218	-0.0982
I72G	-0.24	-0.556
I72H	0.00982	-0.581
I72K	0.155	-0.273
I72L	-0.315	-0.275
I72M	-0.0135	0.0709
I72N	0.0538	-0.293
I72P	0.991	1.28
I72Q	-0.00335	0.0078
I72R	-0.783	0.539
I72S	-0.00568	0.815
I72T	-0.0209	-0.405
I72V	-0.116	-1.01
I72W	0.00502	1.02
I72Y	-1.04	-0.583
N73A	0.491	-0.233
N73C	-0.441	-0.308
N73D	0.282	-0.23

Variant	scaled log2 fold change [1]	scaled log2 fold change [2]
N73E	0.311	0.823
N73F	0.238	-0.334
N73G	0.582	0.401
N73H	-0.0805	-0.159
N73I	-1.24	
N73K	0.136	1.39
N73L	-0.0741	0.0359
N73M	-0.526	0.0726
N73P	0.17	-0.147
N73Q	-0.00176	0.207
N73R	0.219	-0.254
N73S	0.237	
N73T	-0.183	
N73V	0.102	0.976
N73W	-0.0509	
N73Y	0.218	-0.741
R74A	-0.255	-0.8
R74C	0.324	0.937
R74D	0.558	1.28
R74E	-0.261	
R74F	0.533	-0.0248
R74G	0.597	-0.839
R74H	-0.0392	-0.565
R74I	-0.228	1.14

Variant	scaled log2 fold change [1]	scaled log2 fold change [2]
R74L	0.361	-0.577
R74M	-0.486	0.445
R74N	-1.08	1.31
R74P	0.11	
R74Q	0.323	-0.599
R74S	0.363	0.881
R74T	-0.0213	-0.108
R74V	0.486	
R74W	0.234	
R74Y	-0.0737	0.186
D75A	-0.423	0.113
D75C	-0.0427	-0.175
D75E	0.271	0.128
D75F	-0.548	0.355
D75H	0.273	
D75I	-0.502	-0.38
D75K	-0.678	
D75L	0.0705	-0.00446
D75M	-0.0398	-0.59
D75N	-0.329	0.364
D75Q	0.457	
D75R	-0.271	-0.0753
D75S	-0.0315	
D75T	-0.752	0.0498

Variant	scaled log2 fold change [1]	scaled log2 fold change [2]
D75V	-0.11	-0.372
D75W	0.241	-0.146
D75Y	-0.306	
G76A	-0.303	-0.122
G76C	0.377	0.277
G76D	0.21	1.47
G76E	-0.688	0.0105
G76F	-0.264	-0.273
G76H	0.293	-0.385
G76I	0.0447	-0.0276
G76K	-0.353	-0.04
G76L	0.0165	-0.41
G76M	0.321	-0.269
G76N	-0.0936	-0.272
G76P	0.585	0.000649
G76R	-0.0307	
G76S	0.164	
G76T	0.217	
G76V	0.401	-0.808
G76Y	-0.241	0.296
E77A	0.306	1.06
E77C	-0.00193	-0.0101
